Laboratory results as given in the supplement of paper PMC7877785.
± gives the uncertainty stated by the source.

Test: self-splicing fitness, log relative to wild type (ln ratio); higher = more splicing; Tetrahymena group I intron in knt gene, E. coli kanamycin selection, DiMSum; sequences stand for … in CUCUCU…GGAGGGAAAAGUUAUCAGGCAUGCACCUGGUAGCUAGUCUUUAAACCAAUAGAUUGCAUCGGUUUAAAAGGCAAGACCGUCAAAUUGCGGGAAAGGGGUCAACAGCCGUUCAGUACCAAGUCUCAGGGGAAACUUUGAGAUGGCCUUGCAAAGGGUAUGGUAAUAAGCUGACGGACAUGGUCCUAACCACGCAGCCAAGUCCUAAGUCAACAGAUCUUCUGUUGAUAUGGAUGCAGUUCACAGACUAAAUGUCGGUCGGGGAAGAUGUAUUCUUCUCAUAAGAUAUAGUCGGACCUCUCCUUAAUGGGAGCUAGCGGAUGAAGUGAUGCAACACUGGAGCCGCUGGGAACUAAUUUGUAUGCGAAAGUAUAUUGAUUAGUUUUGGAGUACUCGUGGUCG
Summary of the method: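 DiMSum derived fitness as the error-weighted combination of fold changes across replicates, kanamycin versus no kanamycin, normalised to wild type. E. coli BL21(DE3) held the library, which randomised all eight P1ex-region intron nucleotides within the knt kanamycin-resistance gene on pET-22b(+). Six replicate transformations grew overnight at 37°C or 30°C on LB agar with or without 25 μg/mL kanamycin, also containing 100 μg/mL carbenicillin, 50 μM IPTG and 0.2% rhamnose, and pooled colonies were amplicon-sequenced on an Illumina HiSeq 2500.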

Row | Sequence | self-splicing fitness (ln) (30 °C) | self-splicing fitness (ln) (37 °C)
1 | AGUUAGCAAUAUUACGUCCC | -0.148 ± 0.21 | -0.452 ± 0.2
2 | AGUUAGCAAUAUUACGUCCU | 0.147 ± 0.09 | 0.0687 ± 0.091
3 | AGUUAGCAAUAUUACGUGAC | -2.66 ± 0.24 | -2.9 ± 0.33
4 | AGUUAGCAAUAUUACGUGAU | -3.08 ± 0.21 | -1.19 ± 0.18
5 | AGUUAGCAAUAUUACGUGCA | -1.6 ± 0.14 | -0.22 ± 0.15
6 | AGUUAGCAAUAUUACGUGUG | -3.18 ± 0.15 | -1.8 ± 0.13
7 | AGUUAGCAAUAUUACGUGUU | -3.25 ± 0.15 | -1.52 ± 0.14
8 | AUAAAGCAAUAUUACGACAC | -0.305 ± 0.11 | -0.252 ± 0.13
9 | AUAAAGCAAUAUUACGAGAC | -2.89 ± 0.17 | -1.63 ± 0.19
10 | AUAAAGCAAUAUUACGAGAU | -2.31 ± 0.11 | -1.22 ± 0.12
11 | AUAAAGCAAUAUUACGAGCA | -0.252 ± 0.074 | -0.299 ± 0.082
12 | AUAAAGCAAUAUUACGAUAU | -0.0773 ± 0.088 | 0.168 ± 0.1
13 | AUAAAGCAAUAUUACGAUUG | -2.38 ± 0.14 | -1.14 ± 0.16
14 | AUAAAGCAAUAUUACGCAAA | -1.01 ± 0.1 | -1.03 ± 0.14
15 | AUAAAGCAAUAUUACGCAGU | -1.89 ± 0.11 | -0.968 ± 0.096
16 | AUAAAGCAAUAUUACGCAUC | -3.37 ± 0.26 | -1.74 ± 0.3
17 | AUAAAGCAAUAUUACGCCCA | 0.167 ± 0.18 | -0.307 ± 0.23
18 | AUAAAGCAAUAUUACGGAUA | -1.7 ± 0.11 | -0.75 ± 0.11
19 | AUAAAGCAAUAUUACGGCGU | 0.632 ± 0.068 | 0.894 ± 0.1
20 | AUAAAGCAAUAUUACGGGUC | -3.45 ± 0.19 | -1.25 ± 0.15
21 | AUAAAGCAAUAUUACGGUGU | -1.25 ± 0.068 | -0.672 ± 0.082
22 | AUAAAGCAAUAUUACGUACC | 0.0438 ± 0.19 | -0.16 ± 0.4
23 | AUAAAGCAAUAUUACGUCAU | -0.954 ± 0.056 | -0.228 ± 0.083
24 | AUAAAGCAAUAUUACGUGGU | -2.45 ± 0.094 | -1.64 ± 0.1
25 | AUAAAGCAAUAUUACGUGUU | -2.97 ± 0.071 | -1.11 ± 0.068
26 | AUAAAGCAAUAUUACGUUGU | -2.65 ± 0.11 | -1.9 ± 0.11

Row | Sequence | self-splicing fitness (ln) (30 °C) | self-splicing fitness (ln) (37 °C)
27 | AUACAGCAAUAUUACGACUU | -0.367 ± 0.065 | 0.271 ± 0.081
28 | AUACAGCAAUAUUACGAGAC | -4.95 ± 0.41 | -1.82 ± 0.18
29 | AUACAGCAAUAUUACGAUAU | -1.45 ± 0.092 | -0.42 ± 0.1
30 | AUACAGCAAUAUUACGAUCC | -0.368 ± 0.12 | -1.59 ± 0.15
31 | AUACAGCAAUAUUACGCAAC | -2.13 ± 0.16 | -1.49 ± 0.15
32 | AUACAGCAAUAUUACGCCCA | -0.142 ± 0.1 | -0.545 ± 0.14
33 | AUACAGCAAUAUUACGCGUU | -3.01 ± 0.14 | -0.461 ± 0.099
34 | AUACAGCAAUAUUACGCUAC | -2.36 ± 0.35 | 
35 | AUACAGCAAUAUUACGCUGG | -2.29 ± 0.13 | -2.76 ± 0.25
36 | AUACAGCAAUAUUACGGACC | -0.965 ± 0.21 | -1.07 ± 0.26
37 | AUACAGCAAUAUUACGGAUC | -3.54 ± 0.23 | -2.53 ± 0.23
38 | AUACAGCAAUAUUACGGGGG | -3.43 ± 0.25 | -2.84 ± 0.25
39 | AUACAGCAAUAUUACGGGGU | -3.29 ± 0.13 | -1.69 ± 0.093
40 | AUACAGCAAUAUUACGGUGC | -3.65 ± 0.19 | -1.74 ± 0.16
41 | AUACAGCAAUAUUACGUAAC | -3.13 ± 0.11 | -1.25 ± 0.077
42 | AUACAGCAAUAUUACGUGAU | -2.14 ± 0.084 | -0.569 ± 0.089
43 | AUACAGCAAUAUUACGUGUC | -4.39 ± 0.14 | -2.67 ± 0.13
44 | AUACAGCAAUAUUACGUUGC | -4.31 ± 0.28 | -2.21 ± 0.35
45 | AUACAGCAAUAUUACGUUGG | -3.51 ± 0.14 | -2.87 ± 0.16
46 | AUAGAGCAAUAUUACGAAAA | -1.06 ± 0.3 | -1.85 ± 0.35
47 | AUAGAGCAAUAUUACGAGAU | -0.944 ± 0.27 | -1.72 ± 0.4
48 | AUAGAGCAAUAUUACGAGCG | -2.43 ± 0.21 | -1.07 ± 0.22
49 | AUAGAGCAAUAUUACGCCGG | -2.52 ± 0.31 | -1.94 ± 0.47
50 | AUAGAGCAAUAUUACGCUGC | -2.86 ± 0.29 | -1.05 ± 0.2
51 | AUAGAGCAAUAUUACGCUUA | -0.78 ± 0.084 | 0.522 ± 0.16
52 | AUAGAGCAAUAUUACGCUUU | -1.68 ± 0.13 | -1.58 ± 0.15

Row | Sequence | self-splicing fitness (ln) (30 °C) | self-splicing fitness (ln) (37 °C)
53 | AUAGAGCAAUAUUACGGAAU | -1.26 ± 0.15 | -1.24 ± 0.18
54 | AUAGAGCAAUAUUACGGCAU | 0.19 ± 0.084 | 0.738 ± 0.12
55 | AUAGAGCAAUAUUACGGCCG | -0.599 ± 0.24 | -1.36 ± 0.45
56 | AUAGAGCAAUAUUACGGGCG | -3 ± 0.22 | -2.13 ± 0.31
57 | AUAGAGCAAUAUUACGGUUG | -3.21 ± 0.23 | -1.92 ± 0.22
58 | AUAGAGCAAUAUUACGGUUU | -0.828 ± 0.071 | -0.331 ± 0.098
59 | AUAGAGCAAUAUUACGUAAA |  | -1.57 ± 0.24
60 | AUAGAGCAAUAUUACGUCAU | -0.913 ± 0.087 | 0.145 ± 0.1
61 | AUAGAGCAAUAUUACGUCGU | -0.0699 ± 0.096 | -0.158 ± 0.1
62 | AUAGAGCAAUAUUACGUCUG | -0.796 ± 0.098 | -0.654 ± 0.14
63 | AUAGAGCAAUAUUACGUGUA | -3.02 ± 0.18 | -1.17 ± 0.16
64 | AUAGAGCAAUAUUACGUUGU | -1.96 ± 0.066 | -1.52 ± 0.07
65 | AUAUAGCAAUAUUACGAAAG | -3.28 ± 0.25 | -2.08 ± 0.38
66 | AUAUAGCAAUAUUACGCAAC | -3.95 ± 0.32 | -1.96 ± 0.27
67 | AUAUAGCAAUAUUACGCACA | -0.73 ± 0.19 | -0.28 ± 0.23
68 | AUAUAGCAAUAUUACGCGUU | -1.67 ± 0.2 | -1.61 ± 0.24
69 | AUAUAGCAAUAUUACGCUAC | -2.34 ± 0.33 | 
70 | AUAUAGCAAUAUUACGGAUU | -1.46 ± 0.14 | -1.26 ± 0.22
71 | AUAUAGCAAUAUUACGGCUU | 0.0949 ± 0.099 | 0.269 ± 0.12
72 | AUAUAGCAAUAUUACGGUUA | -1.12 ± 0.13 | -0.372 ± 0.12
73 | AUAUAGCAAUAUUACGUAAU | -1.02 ± 0.073 | -0.751 ± 0.12
74 | AUAUAGCAAUAUUACGUACU | -0.531 ± 0.16 | -0.188 ± 0.19
75 | AUAUAGCAAUAUUACGUAGU | -2.39 ± 0.14 | -0.774 ± 0.14
76 | AUAUAGCAAUAUUACGUAUA | -2.12 ± 0.23 | -0.454 ± 0.17
77 | AUAUAGCAAUAUUACGUAUC | -3.41 ± 0.3 | -1.92 ± 0.35
